# Test results from the RNAGym collection of RNA variant scans (doi:10.1073/pnas.2313332121).
# Fewer inactive variants are shown than the library holds.
# B1: TPR 5TU (parent)
# chain: GGAUCUUCUCGAUCUAACAAAAAAGACAAAUCUGCCACAAAGCUUGAGAGCAUCUUCGGAUGCAGAGGCGGCAGCCUUCGGUGGCGCGAUAGCGCCAACGUUCUCAACUAUGACACGCAAAACGCGUGCUCCGUUGAAUGGAGUUUAUCAUG
# Variants of: B1
# Experiment: polymerase ribozyme fitness, log enrichment relative to wild type (log ratio); higher = more active; in vitro selection for triplet polymerase activity
# In short: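 Genotype fitness is the logarithm of its enrichment divided by wild-type enrichment, using inverse-variance-weighted averages of replicates. That logarithm is base 2. Enrichment was measured by Illumina sequencing of input and output libraries from one triplicate in vitro selection round, with frozen incubation at −7 °C, on PCR-built, transcribed mutant libraries of each subunit of a heterodimeric triplet polymerase ribozyme, retaining genotypes with ≥10 input reads and ≥1 read per output.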
row,Variant,polymerase ribozyme fitness (log ratio)
1,U31A G86A U134C,-0.431
2,A29U C35G C95G,-4.03
3,A29U G58C G84A C105U A113C,≤ -4.2
4,U31C A37C A106U A107C,≤ -4.2
5,A30U C54U A73G C95A C116U,-4.03
6,A29U G94U U109A,≤ -4.2
7,A30U C85U A97U G128A G140C C149U,≤ -4.2
8,A29U G70U G71A C87U U90A A106U,≤ -4.2
9,A30G G46A A107U,-4.03
10,U31C A39C C57A C76G C95G C131U U144G,≤ -4.2
11,U31A U53A,-0.327
12,A30U C35U G141U,≤ -4.2
13,U31A U45A C76U C85U C93U G136U A150C,≤ -4.2
14,A30U U56A G62A G126A,-3.5
15,A30U A60C G62A C76A C96G U127G G143C,≤ -4.2
16,U31C A47G A49U G94A A119G G136C,-4.04
17,A30U G58C C76A G94C U104G G136A,≤ -4.2
18,A30U U144A,-3.67
19,A30G G42A U55G G65A C76G C87G A106U G143A A147C,≤ -4.2
20,A30C C96A U135A A137U,≤ -4.2
21,U31A G88A U90A G133A,≤ -4.2
22,A30U U77A G84U A91C G94C C99G G141C,≤ -4.2
23,A30G A39C U55G U82C G136U,≤ -4.2
24,A30U C95G,-3.94

row,Variant,polymerase ribozyme fitness (log ratio)
1,A30U C95U,-3.31
2,A30C C72G G86U A106G U144C C149G,≤ -4.2
3,A29U C99A,-4.17
4,A30U A41C G70C C93G,≤ -4.2
5,A30C C85U,-4.09
6,A29U G48U U61G G83C,≤ -4.2
7,A30U C69U G83A,≤ -4.2
8,A30C U53A G84A,≤ -4.2
9,A30U A52G U53A U146G,≤ -4.2
10,A30C C57G C63U G65U C96U A97U,≤ -4.2
11,U31C A41U A115G U144G,-1.6
12,A29U U44A G58C U61A G71U U77A U82G G140C,≤ -4.2
13,A30U A52C U90C C93U C95U C96U A106G,≤ -4.2
14,A29U C51G G58C G71A A91G C95A C103G U151A G152A,≤ -4.2
15,A30U C43G A47G U53G C72A G140A,≤ -4.2
16,U31A C35G A66C G68U,-4.17
17,A30G G48A C54U C85U,≤ -4.2
18,A30U C43G,≤ -4.2
19,U31A A73U C95G,-3.66
20,U31A C95G U130A,-3.43
21,A29U G133C,≤ -4.2
22,U31A U45A A47C C93U C99G U135A,≤ -4.2
23,A30U C54U C85A G128C G140U G141A,≤ -4.2
24,A30C C43U A49C C85G C108G,≤ -4.2

row,Variant,polymerase ribozyme fitness (log ratio)
1,A29U G68A G83A C103G,≤ -4.2
2,A30U U44A C85A A110C U111C,≤ -4.2
3,U31A C32G A41U G67U G80C G86C A147U,≤ -4.2
4,A30G G141C,-3.51
5,U31A A89C,-0.512
6,A30G C54U G80U A91C C103U,≤ -4.2
7,A30G C87U U101A U109C A115U A120U A122U U145G G152A,≤ -4.2
8,A30U C32G C54A C57G C99U A107G,≤ -4.2
9,U31A C54U G83U G94U G124A A142C,-4.09
10,A30U A52C G67A G68A C87U A91G C95G U127C G143U U148G,≤ -4.2
11,A30C A52C C85U C99A A115U C131U G141C,≤ -4.2
12,U31A A47C U56A C87U,-0.397
13,U31A A66U G86U G100C,≤ -4.2
14,U31A A41G C76U C93A G136A G140A,-3.72
15,U31A A91C C116A,-3.88
16,A30G C57A,-2.9
17,A30C C76A G83C,≤ -4.2
18,U31A U53A G68U C95A C149G,≤ -4.2
19,U31A G58C U61A C87G C96U C99U C114G A150G,≤ -4.2
20,A30G C54U C76G A91C,≤ -4.2
21,A30C U33C G67A C93G A119U,-3.89
22,A30C C54U C96G G141A,≤ -4.2
23,U31A C85A,-0.724
24,A30G A47U A64G G94A,-3.57

row,Variant,polymerase ribozyme fitness (log ratio)
1,U31A A39G A40U A41C G48A C95U C131G U148A,≤ -4.2
2,A30C C79G C85U A106U,≤ -4.2
3,A30C C75G C103G,≤ -4.2
4,A30U A73G,-3.78
5,A30U A49G A52G G58C U78A A110U C123U A142C,≤ -4.2
6,A30G U56A C85G C132U,≤ -4.2
7,A30C A37C A49C A52C C57G G83A A115U G143C,≤ -4.2
8,A30G U45G G46C C76U C87U U135A,≤ -4.2
9,A30G G92U A98U,-3.79
10,A30G G80A,-3.66
11,A29U G68A,≤ -4.2
12,A30G A91U A137G G141U,≤ -4.2
13,A30U U45G C93U C103G C118G,≤ -4.2
14,A30G G74U C95A U148G,≤ -4.2
15,A29U U44C U45A C57A A64G C76A C95A A150C,≤ -4.2
16,U31C A121C U134A,-1.76
17,U31A G94A,-0.349
18,U31A A39G G67C C72G C96U A107U A113G A115C U148A,≤ -4.2
19,U31A A52G G84U,-0.528
20,A29U G70U,≤ -4.2
21,A29U U61A A91C C96A G128C,≤ -4.2
22,A30G A121U,-3.39
23,A30G A121G,-3.36
24,U31A C57U C87U A89G G117A,-3.86

row,Variant,polymerase ribozyme fitness (log ratio)
1,A30U U45A G50C C79G G83C G126C,≤ -4.2
2,A29U G59C U82A C93U,≤ -4.2
3,A30G C51U G68C A121G U127C,≤ -4.2
4,A29U U33C A52C G86A,≤ -4.2
5,A30U A106G,-2.9
6,A30U G42A U55G C69A G126U A142C,≤ -4.2
7,U31A G58C C75A C103U U109A A110G,≤ -4.2
8,A30G A40G U45G C79G A89C G94U U145A,≤ -4.2
9,A30G C93A,-3.95
10,U31A C51U A73G C95G,-3.09
11,A29U U45G G86C U148A,≤ -4.2
12,A30U A37C G50C A91G A150G,≤ -4.2
13,A30U G50C U56A A66C G141A,≤ -4.2
14,A30U G70A G143C,≤ -4.2
15,A30U C54A C76A C87G G92A G143C,≤ -4.2
16,A30G U45A U78C G80C A89C G94U,≤ -4.2
17,A30G U77C G84C G86U U102A C118U,≤ -4.2
18,A29U C63U C114U,≤ -4.2
19,U31A A40U C85G A106G G140A C149A,≤ -4.2
20,A30U C38G G50C C87G G117A,≤ -4.2
21,A30C C35U C54U C85U A121U,≤ -4.2
22,A30G C76U,-3.9
23,U31A U56A U127C,-1.37
24,A29U G46A U61A U78G C87G A89C G124U U148G,≤ -4.2

row,Variant,polymerase ribozyme fitness (log ratio)
1,U31A C36A A52G C76A C95U G124A G140U U145G,≤ -4.2
2,A30U U55A G74A C79U C87A C116A,≤ -4.2
3,U31A C38A G50C C85U,≤ -4.2
4,A29U G92A A142C,≤ -4.2
5,A30G C54G G68A C95G A121C,≤ -4.2
6,A30U C87G C116A G141A,≤ -4.2
7,U31A A49G U55A G59U C96G,-1.89
8,A30G A40G C54A C85U G117C,≤ -4.2
9,U31A U55G C93G A110C A115U C123G,≤ -4.2
10,A29U C51A G94A,≤ -4.2
11,A30G U45A A106C U135G,-3.85
12,A30U C57A A73G G81C G92U G141A U148A,≤ -4.2
13,A30C A41G C76U G83A A89U G124A C131U C132G G143A U144A C149A,≤ -4.2
14,A30G G48U G86U C149U,≤ -4.2
15,A29U G48A C87G A121G G141C G152U,≤ -4.2
16,A30U C87G U101G U146A C149G,≤ -4.2
17,U31A C69A C95A C116G,-2
18,A30G C57U C63U G68C C95U A120C C125G,≤ -4.2
19,A29U C76G G84U C96A A122U U144A,≤ -4.2
20,U31A G68C C76A C85A,≤ -4.2
21,A29U G94U C149G,≤ -4.2
22,A30U U56G G84A C96U A113C C125U U134A A142U,≤ -4.2
23,U31A A49G C105U,-0.707
24,A29U G46U G59A G70A A89U G117U U148A,≤ -4.2

row,Variant,polymerase ribozyme fitness (log ratio)
1,A30U C54A A97U C116U G117U,≤ -4.2
2,U31A U55A A147G,-0.55
3,A30G A64G G136C,-4.07
4,A29U U55G C57U G67C A98G,≤ -4.2
5,U31A C51G,-0.943
6,A30C C95U,-4.11
7,A30U C43U G70U C87G,≤ -4.2
8,U31A U45A U55G C85U C95G A120G A142U,-4.06
9,U31A U55A G83A G117A,-0.253
10,A30G C32G U56A C57G G86U A142G,≤ -4.2
11,A30G C87G U101C A122G,≤ -4.2
12,A30U C76A,-3.82
13,A30U A52G U56G G80C G84U A98C A110U,≤ -4.2
14,A30U A91U,≤ -4.2
15,U31A G65U C93G U135C,≤ -4.2
16,U31A U56A G86A A97C C105A U145C,≤ -4.2
17,A30G G50C C51A G84A C87G G100U A121G,≤ -4.2
18,U31A C131A,-1.89
19,U31A A41U G83C U111G G136C,≤ -4.2
20,U31A G50C C85U,-3.83
21,A30U G94U,≤ -4.2
22,A30U G94A,-3.7
23,A29U G86A C87U C105A C116A U146A,≤ -4.2
